Tested on: platelets
Experiment: Shear-activated platelet translocation on von Willebrand Factor in the microfluidic device (blood perfusion assay, platelet tracking software)
Assay type: cell-based
Conditions: whole blood treated with ReoPro 20 μg/ml for 20 minutes; vWF-coated test area; arterial shear rate 1500 s-1; compared to normal untreated platelets (FIG. 13)
From the text: The microfluidic device was used to measure the shear-activated response of platelets in the presence of von Willebrand Factor (vWF). In particular, the effect of platelet specific GPIIb-IIIa antagonist (abciximab, ReoPro) on platelet function was examined. Abciximab (trade name ReoPro, distributed by Eli Lilly) is a platelet aggregation inhibitor used mainly during and after coronary artery procedures to prevent platelets from sticking together, by platelet GPIIb-IIIa-mediated aggregation, and subsequent thrombus formation.
Blood Draw: Blood was obtained from volunteers by venopuncture using a 19-g needle attached to a polypropylene syringe containing anticoagulant solution. […]
Matrix deposition on microfluidic device: The components of the flow cells were assembled using a jig to ensure patterned psa layers are aligned. […] Using silastic laboratory tubing, von Willebrand Factor solution (˜100 ug/ml protein solution in Phosphate Buffered Saline solution (PBS) was injected to fill the flow cell. The platform was then left to sit for 2 hours to immobilise the vWF on the glass base. (The flow cells were blocked with 1% BSA solution (in PBS) for 1 hour at room temperature). Deposition of von Willebrand Factor was by coating through adsorption. The platforms were rinsed with PBS solution and were then ready for perfusion assays. […]

B1: abciximab (antibody, chains of the INN, looked up, V domains shown)
VH: EVQLQQSGTVLARPGASVKMSCEASGYTFTNYWMHWVKQRPGQGLEWIGAIYPGNSDTSYIQKFKGKAKLTAVTSTTSVYMELSSLTNEDSAVYYCTLYDGYYVFAYWGQGTLVTVSA
VL: EIVLTQSPVTLSVTPGDSVSLSCRASRDISNNLHWFQQTSHESPRLLIKYASQSMSGIPSRFSGSGSGTDFTLSINSVETEDFGMYFCQQTNSWPYTFGGGTKLEIK
modifications: Fab
notes: platelet specific GPIIb-IIIa antagonist
B1 was tested, and the average velocity was “increased” and the escape percentage was “increased”.

Source: patent publication US9378557B2, “Microfluidic device for assessing object/test material interactions” (Dublin City University, priority 2008, dated 2016)
